Data: patent publication US20110150896A1 (published 2011)

Target: full-length PcrV protein (recombinant, 1-294) (in the biotin-labeled form: PEO-maleimide activated biotin on the inserted cysteine)
Assay: SPR

B1: 2A4 (antibody, V domains shown)
VH: DVQLQESGPGLVKPSQSLSLTCTVTGYSITSDYAWNWIRQFPGNKLEWMGYITYNGDTSYNPSLKSRISIARDTSKNQFFLQLNSVTTEDTATYSCAGSRNYYGAWFAYWGQGTLVTVSA
VL: DIVMTQSHKFMSTSIGDRVSINYKASQYVGTTVAWYQQKSGHSPKLLIYRASTRHTGVPDRFTGSGSGTDFTLNISNVQSEDLADYFCQQYCSSPLTFGAGTYLEVKR
- Kd: 0.35 nM

B2: 1F3 (antibody, V domains shown)
VH: QVQLQQPGAELVKPGASVKLSCKASGYSFTSYWMHWVKQRPGQGLEWIGEINPSNGRTNYNEKFNTKATLTVDTSSSTAYMQLSSLTSEDSAVYYCVLYGNYVVYYTMDYWGQGTSVTVSS
VL: QIVLTQSPTIMSASLGEEITLTCSASTSVSYMEWYQQKSGTSPKILIYTTSKLASGVPSRFSGSGSGTFYSLTISSVEAEDAADYYCHQWRNYPFTFGSGTKLEIKR
- Kd: 0.37 nM
